Consider 2 substances from patent US20010052137.

For data set [1], the system named is T1, Myc-tagged GID-2 construct of Xaxin (amino acid residues 320-429).
T1 sequence: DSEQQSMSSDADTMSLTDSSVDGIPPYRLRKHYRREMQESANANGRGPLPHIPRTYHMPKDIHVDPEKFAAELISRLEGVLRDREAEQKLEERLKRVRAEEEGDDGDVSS

Data set [2] deals with T2, Myc-tagged GID-3 construct of Xaxin (amino acid residues 320-375).
T2 sequence: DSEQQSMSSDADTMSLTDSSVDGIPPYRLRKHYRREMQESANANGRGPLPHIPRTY

Data set [3] relates to T3, Myc-tagged GID-4 construct of Xaxin (amino acid residues 350-429).
T3 sequence: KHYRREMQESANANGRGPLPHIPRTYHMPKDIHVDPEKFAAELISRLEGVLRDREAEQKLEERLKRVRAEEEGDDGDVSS

The subject of data set [4] is T4, Myc-tagged GID-5 construct of Xaxin (amino acid residues 380-429).
T4 sequence: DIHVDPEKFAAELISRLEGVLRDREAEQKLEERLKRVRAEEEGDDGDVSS

Data set [5] concerns T5, Myc-tagged GID-6 construct of Xaxin (amino acid residues 380-404).
T5 sequence: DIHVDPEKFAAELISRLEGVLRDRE

The subject of data set [6] is T6, GID-2/his fusion protein (Xaxin amino acid residues 320-429 with His-epitope tag, from E. coli).
T6 sequence: T1 sequence

As to “GSK-3 beta (glycogen synthase kinase-3 beta) expressed in Xenopus oocytes”, the “GSK-3 beta mediated tau phosphorylation in Xenopus oocytes” value in data set [1] was “bound GSK-3 beta and inhibited GSK-3 beta mediated tau phosphorylation”; in data set [2] it was “did not bind GSK-3 beta and had no effect on GSK-3 beta activity”; in data set [3], “bound GSK-3 beta and inhibited GSK-3 beta mediated tau phosphorylation”; in data set [4], “bound GSK-3 beta and inhibited GSK-3 beta mediated tau phosphorylation”; in data set [5], “bound GSK-3 beta and inhibited GSK-3 beta mediated tau phosphorylation”.
Take “Recombinantly-produced GSK-3 beta protein (New England Biolabs)”: in data set [6], the “GSK-3 beta mediated phosphorylation of the GS-2 peptide derived from glycogen synthase, in vitro” value is “GID-2/his exhibited no significant effect on GSK-3 beta mediated phosphorylation of the GS-2 peptide” and the “phosphorylation of tau by GSK-3 beta, in vitro” value is given as “GID-2/his also did not inhibit phosphorylation of tau by GSK-3 beta, even when GID-2/his was present at a 200-fold molar excess”.
